# Assay results as given in patent US5980890A, “Purification and characterization of alkaline phosphates from Thermotoga neapolitana” (Michigan State University, priority 1997, dated 1999).
# Where a name gives a salt, the structure may show the parent alone.
# T1: Thermotoga neapolitana (DSM 5068) alkaline phosphatase, purified native enzyme (Thermotoga neapolitana, UniProt B9K6X5)
# T1 sequence (B9K6X5 23-436): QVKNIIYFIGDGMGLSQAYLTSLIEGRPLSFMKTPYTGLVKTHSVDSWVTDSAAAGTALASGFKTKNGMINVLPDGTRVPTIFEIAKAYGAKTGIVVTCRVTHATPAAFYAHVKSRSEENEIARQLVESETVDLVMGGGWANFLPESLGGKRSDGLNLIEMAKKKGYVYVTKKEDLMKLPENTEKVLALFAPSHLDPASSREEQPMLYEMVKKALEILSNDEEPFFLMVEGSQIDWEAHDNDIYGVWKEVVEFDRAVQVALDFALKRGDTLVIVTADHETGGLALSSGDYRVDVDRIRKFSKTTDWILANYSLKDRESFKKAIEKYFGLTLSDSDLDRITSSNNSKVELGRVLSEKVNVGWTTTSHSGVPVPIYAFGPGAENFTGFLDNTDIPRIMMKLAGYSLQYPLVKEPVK
# What was measured:
# [1] = target: T1, Thermotoga neapolitana (DSM 5068) alkaline phosphatase, purified native enzyme; assay: biochemical; conditions: 1 h, read-out: original activity detected after exhaustive treatment with EDTA
# Protocol: The initial linear change in the absorbance at 410 nm was detected by recording spectrophotometer (Cary 219, U.S.A.), thermostated at 60° C. One enzyme activity unit represents the hydrolysis of 1 μl mole of substrate per min under these standard assay condition.
# The purified alkaline phosphatase in Buffer A was incubated at room temperature for 1 h in the presence of EDTA at 0.0-5.0 mM concentration respectively. The residual enzyme activity was assayed under standard conditions.
# For metal ion treatment, 10 mM EDTA was added into a tube containing the purified alkaline phosphatase in Buffer A. After 1 h, the mixture was dialyzed against Buffer A containing 2 mM EDTA and then three times against Buffer A without EDTA. Subsequently, 2 mM of different metal ions were added to the deionized enzyme solutions, and the mixtures were incubated for 1 h at room temperature. For a comparison, 2 mM of various metal ions were added directly to purified protein and incubated under the same conditions. All the metal ions used were in chloride form. The enzyme activity was assayed under standard conditions.
# [2] = substrate: O=[N+]([O-])c1ccc(OP(=O)(O)O)cc1; assay: purified protein, by the assay type; conditions: other: p-nitrophenyl phosphate as substrate, optimal temperature and pH conditions (85° C., pH 9.9)
Molecule,activity at 10000 µM [1] [%],Km [2] [µM],Vmax [2] [U/mg]
"O=C(O)CN(CCN(CC(=O)O)CC(=O)O)CC(=O)O [EDTA, Ethylenediamine tetraacetic acid disodium salt]",~5,–,–
"Thermotoga neapolitana (DSM 5068) alkaline phosphatase, purified native enzyme (Thermotoga neapolitana DSM 4359) (protein) QVKNIIYFIGDGMGLSQAYLTSLIEGRPLSFMKTPYTGLVKTHSVDSWVTDSAAAGTALASGFKTKNGMINVLPDGTRVPTIFEIAKAYGAKTGIVVTCRVTHATPAAFYAHVKSRSEENEIARQLVESETVDLVMGGGWANFLPESLGGKRSDGLNLIEMAKKKGYVYVTKKEDLMKLPENTEKVLALFAPSHLDPASSREEQPMLYEMVKKALEILSNDEEPFFLMVEGSQIDWEAHDNDIYGVWKEVVEFDRAVQVALDFALKRGDTLVIVTADHETGGLALSSGDYRVDVDRIRKFSKTTDWILANYSLKDRESFKKAIEKYFGLTLSDSDLDRITSSNNSKVELGRVLSEKVNVGWTTTSHSGVPVPIYAFGPGAENFTGFLDNTDIPRIMMKLAGYSLQYPLVKEPVK",–,183,1352
